Measured values as given in publication doi:10.1101/577460 (bioRxiv, 2019).
Substitutions are numbered along the chain they refer to. In names and notes the source's numbering stands.

What was measured:
[1] = target: T1, barrier-to-autointegration factor (BAF) (human, UniProt O75531 1-89); test: SEC
T1 sequence (looked up): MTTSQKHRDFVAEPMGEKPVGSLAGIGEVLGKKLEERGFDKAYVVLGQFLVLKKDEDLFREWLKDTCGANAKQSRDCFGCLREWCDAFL

co-sedimentation = target: the molecule itself; test: co-sedimentation
negative stain EM = target: the molecule itself; test: negative stain EM
full-length human CHMP7 = target: T2, full-length human CHMP7 (human, UniProt Q8WUX9 1-453); test: cross-linking
T2 sequence (looked up): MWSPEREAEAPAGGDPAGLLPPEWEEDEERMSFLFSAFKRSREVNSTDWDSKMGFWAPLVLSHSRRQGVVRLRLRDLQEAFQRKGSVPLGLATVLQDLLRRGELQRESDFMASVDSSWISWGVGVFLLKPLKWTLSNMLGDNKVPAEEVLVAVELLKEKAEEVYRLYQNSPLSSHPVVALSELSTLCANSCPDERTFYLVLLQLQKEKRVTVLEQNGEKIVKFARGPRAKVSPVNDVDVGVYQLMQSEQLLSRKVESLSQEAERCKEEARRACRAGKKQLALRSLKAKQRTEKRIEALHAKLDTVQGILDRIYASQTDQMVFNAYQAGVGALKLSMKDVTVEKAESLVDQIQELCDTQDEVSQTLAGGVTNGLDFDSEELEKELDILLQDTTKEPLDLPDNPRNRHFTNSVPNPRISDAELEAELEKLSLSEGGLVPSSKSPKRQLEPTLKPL

B1: LEM2_(1-72) (domain or fragment, human, UniProt Q8NC56 1-72, looked up)
chain: MAGLSDLELRRELQALGFQPGPITDTTRDVYRNKLRRLRGEARLRDEERLREEARPRGEERLREEARLREDA
B1: binds [1].

B2: CHMP7_(R270E + I312E) (natural protein, human, UniProt Q8WUX9 1-453, looked up)
chain: T2 sequence (looked up) with R270E, I312E
B2: binds (co-sedimentation).

B3: CHMP7_(R270E + V339D) (natural protein, human, UniProt Q8WUX9 1-453, looked up)
chain: T2 sequence (looked up) with R270E, V339D
B3: binds (co-sedimentation).

B4: CHMP7_(229-453) (domain or fragment, human, UniProt Q8WUX9 229-453, looked up)
chain: AKVSPVNDVDVGVYQLMQSEQLLSRKVESLSQEAERCKEEARRACRAGKKQLALRSLKAKQRTEKRIEALHAKLDTVQGILDRIYASQTDQMVFNAYQAGVGALKLSMKDVTVEKAESLVDQIQELCDTQDEVSQTLAGGVTNGLDFDSEELEKELDILLQDTTKEPLDLPDNPRNRHFTNSVPNPRISDAELEAELEKLSLSEGGLVPSSKSPKRQLEPTLKPL
B4: binds (negative stain EM).

B5: His6-SUMO-LEM2_(395-503) (domain or fragment, human, UniProt Q8NC56 395-503, looked up)
chain: ILLKYRWRKLEEEEQAMYEMVKKIIDVVQDHYVDWEQDMERYPYVGILHVRDSLIPPQSRRRMKRVWDRAVEFLASNESRIQTESHRVAGEDMLVWRWTKPSSFSDSER
B5: binds (full-length human CHMP7).
